Assay results: article PMC6771245, “CMKLR1-targeting peptide tracers for PET/MR imaging of breast cancer” (Theranostics, 2019)
Values joined by “and” are separate entries in the source; they are usually repeats but may differ in a detail not shown here. Identical values can stand only once. *1 amine or outer side, *2 acyl side, *3 side chain or, on linkers, in order; H or OH if unused. Where a SMILES comes first, the peptide text is derived from it. [ ]: non-standard residue; d: D form. The star is where a group is joined. X1 = O=C(O)CN1CCN(CC(=O)O)CCN(CC(=O)NCCCOCCOCCOCCCN*)CCN(CC(=O)O)CC1; DOTA = O=C(O)CN1CCN(CC(=O)O)CCN(CC(=O)*)CCN(CC(=O)O)CC1; NH(CH2)9CO = O=C(CCCCCCCCCN[*:1])[*:2]; Hyp = O=C(O)[C@@H]1C[C@@H](O)CN1; Tic = O=C(O)[C@@H]1Cc2ccccc2CN1; Cha = N[C@@H](CC1CCCCC1)C(=O)O; Cit = NC(=O)NCCC[C@H](N)C(=O)O; Suc = O=C(CCC(=O)[*:2])[*:1]; Octanoyl = CCCCCCCC(=O)*; Ahx = NCCCCCC(=O)O

Experiments:
huCMKLR1 [1] = biological target: T1, huCMKLR1 (Homo sapiens, UniProt Q99788); assay: Competitive radioligand binding with ^125I-chemerin-9, membranes of HEK293a cells stably expressing huCMKLR1 and Gα16; settings: unlabeled compound; radioligand ^125I-chemerin-9, 5 µg membrane, 1 h 37 °C; three independent experiments, mean ± SD; read-out: competition binding IC50 w/o ^natGa
T1 construct: expressed in transfected cells; host or cells: HEK293a (membrane preparations)
T1 sequence (Q99788 1-373): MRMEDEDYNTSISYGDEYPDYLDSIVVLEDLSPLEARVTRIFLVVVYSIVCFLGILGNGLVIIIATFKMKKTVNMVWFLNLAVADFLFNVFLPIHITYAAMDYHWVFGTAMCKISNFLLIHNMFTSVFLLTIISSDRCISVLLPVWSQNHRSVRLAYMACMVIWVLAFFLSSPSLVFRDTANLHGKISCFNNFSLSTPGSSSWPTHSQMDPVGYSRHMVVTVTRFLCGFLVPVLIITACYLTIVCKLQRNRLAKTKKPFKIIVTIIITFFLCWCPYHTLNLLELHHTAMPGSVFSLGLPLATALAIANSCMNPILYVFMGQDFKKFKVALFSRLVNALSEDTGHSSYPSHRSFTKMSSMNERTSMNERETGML
Procedure: (§1) For in vitro analysis, HEK293a stably transfected with huCMKLR1 and Gα16 were used. For the in vivo mouse model, the human breast cancer cell line DU4475 with endogenous CMKLR1 expression and the target-negative human lung carcinoma cell line A549 were used. All cell lines were obtained from ATCC/LGC Standards (Wesel, Germany) and were cultured in RPMI1640 medium containing 10% fetal bovine serum (both from Biochrom, Berlin, Germany) and, in case of transfected cells, selection agents G418 (Biochrom, Berlin, Germany) and zeocin (Invitrogen, Carlsbad, USA).
Competitive binding studies were performed with cell membrane preparations. […] […].
(§2) All statistical analyses were performed using GraphPad Prism 5.04. EC50/IC50 values were determined by nonlinear sigmoidal curve fitting with variable slope setting, and normalized response for competitive binding results. Multiple group comparisons were done by a two-way ANOVA and Bonferroni post hoc test. All presented data are based on independent experiments. Normalizations and statistics are further defined in each figure legend.

huCMKLR1 [2] = biological target: T1, huCMKLR1; assay: Calcium mobilization assay; format: cell-based; settings: HEK293a huCMKLR1 Gα16 cells, Fluo-4 AM; three independent experiments, mean ± SD; read-out: Ca^2+ assay EC50
Procedure: as §1
Optical ViewPlate 96-well microplates (PerkinElmer, Waltham, USA) were coated with poly-D-lysine (10 µg/mL, 50 µL/well) for 30 minutes at 37 °C, washed with PBS and air dried before seeding 40,000 HEK293a huCMKLR1 Gα16 cells per well. The next day, cells were starved with serum-free medium for 30 minutes and incubated with loading medium consisting of serum-free medium with 2.5 mM probenicid (Sigma-Aldrich, St. Louis, USA) and 2 µM Fluo-4 AM (Thermo Fisher Scientific, Waltham, USA). After a loading time of 45 minutes, cells were washed with 100 μL C1 buffer (130 mM NaCl, 5 mM KCl, 10 mM 4-(2-hydroxyethyl)-1-piperazineethanesulfonic acid [HEPES], 2 mM CaCl2, 10 mM glucose) followed by 20 minutes of incubation in the dark. After another washing and incubation cycle, the cell plate was placed into the CellLux Calcium Imaging System (PerkinElmer, Waltham, USA) and the assay was performed automatically according to the following protocol. After a baseline measurement for 30 seconds, the ligands (prepared in C1 buffer with 0.5% BSA in double concentration and pipetted in a U-bottom plate) were added on top of the cells and the fluorescence intensity was recorded for further 60 seconds. Obtained raw data were analyzed using AssayPro (PerkinElmer, Waltham, USA). After spatial uniformity correction, maximum response values (F) were normalized to baseline values (F0) of each well using the following equation:
response = ΔF/F0 = (F - F0)/F0.
as §2

[3] = Determination of LogD7.4 values; format: physicochemical; settings: shake-flask octanol/PBS pH 7.4; 3 µL of 1 mM solution, 300 µL per phase, vortex 1 min, centrifuged 5 min 10,000 x g; HPLC peak area octanol/buffer, both phases analysed
Procedure: Compounds (3 µL of a 1 mM solution) were diluted into 300 µL PBS pH 7.4 or octanol and mixed. 300 µL of the other phase was added, followed by vigorous mixing using a vortex shaker for one minute. The two phases were centrifuged (5 min, 10,000 x g). Following separation, 25 µL aliquots were removed for HPLC analysis. LogD7.4 was calculated by taking the logarithm of the ratio of the high-performance liquid chromatography (HPLC) peak area of each compound in octanol to the corresponding peak area in buffer. Consequently, logD7.4 values were based on analysis of both aqueous and octanol fractions.

[4] = tested on: DU4475/A549 xenograft model; assay: in vivo; settings: mouse
Text: (§3) For in vivo experiments, at least 8-week-old female athymic NMRI-Foxn1^nu /Foxn1^nu mice (Janvier Labs, Saint-Berthevin, France) were used. Animal care followed institutional guidelines and all experiments were approved by local animal research authorities. For the generation of tumor xenografts, 5 x 10^6 cells of both DU4475 and A549 cells were inoculated subcutaneously into the right and left shoulder, respectively (1:1 phosphate-buffered saline [PBS]/Matrigel Basement Membrane Matrix High Concentration, Corning, Corning, USA). Part of the animals received SW13 lung cancer cells as a CMKLR1-negative control tumor. For the analysis of biodistribution, only data of […] and A549 xenograft tumors are used. Tumors were allowed to grow for two to four weeks (tumor volume > 100 mm^3) after cell inoculation.
(§4) Radiolabeling of peptide-DOTA conjugates was carried out manually using ^177Lu from ITG Isotope Technologies Garching GmbH (Garching, Germany). A total of 50 µL (stock solution of peptide at 1 µg/µL in 10% DMSO in water) was added to 200 µL of acetate buffer (sodium acetate/acetic acid buffer, 0.4 M, pH 5.0) and 120 µL of gentisic solution prepared by dissolving 50 mg of gentisic acid in 1 mL of acetate buffer. The resulting mixture was then added to 35 µL of ^177Lu (1 GBq in aqueous 0.04 M HCl) and the reaction mixture was heated at 96 °C for 30 minutes followed by cooling for 10 minutes at room temperature. The product was then diluted with 5 mL of saline and used directly for animal experiments.
(§5) Tumor-bearing mice were injected with approximately 10 MBq of ^68Ga-labeled DOTA-peptide or 1 MBq of ^177Lu-labeled DOTA-peptide to the tail vein via a catheter. […] Tumor, blood, stomach, pancreas, small intestine, colon, liver, spleen, kidney, heart, lung, muscle and femur samples were weighed and uptake of radioactivity was measured by a gamma counter. To determine the effect of unlabeled ligand on the tumor uptake, 200 nmol CG34 peptide (100-fold excess) was co-injected.

in vivo = settings: female, athymic NMRI-Foxn1^nu/Foxn1^nu, mouse, iv, 1 MBq, total radioactivity
Text: as §3, §4, §5

Row | IC50 (huCMKLR1 [1]) | EC50 (huCMKLR1 [2]) | SMILES | logD [3] | other results
1 | 1 nM | 0.4 nM | C[C@@H](NC(=O)[C@H](Cc1ccccc1)NC(=O)[C@H](CCCNC(N)=O)NC(=O)CNC(=O)[C@@H]1C[C@@H](O)CN1C(=O)[C@H](CC1CCCCC1)NC(=O)[C@@H](N)Cc1ccc(O)cc1)C(=O)N1Cc2ccccc2C[C@H]1C(=O)N[C@@H](CO)C(=O)O [CG34] (H-Y[Cha][Hyp]G[Cit]F[dA][Tic]S-OH) | – | –
2 | 0.1 nM | 0.9 nM | CSCC[C@H](NC(=O)CNC(=O)[C@@H]1CCCN1C(=O)[C@H](CC1CCCCC1)NC(=O)[C@@H](N)Cc1ccc(O)cc1)C(=O)N[C@@H](Cc1ccc(O)cc1)C(=O)N[C@@H](C)C(=O)N[C@@H](Cc1ccccc1)C(=O)N[C@H](Cc1ccccc1)C(=O)O [CG36] (H-Y[Cha]PGMYAF[dF]-OH) | – | –
3 | 0.65 ± 0.15 nM | 0.65 ± 0.1 nM | C[C@@H](NC(=O)[C@H](Cc1ccccc1)NC(=O)[C@H](CCCNC(N)=O)NC(=O)CNC(=O)[C@@H]1C[C@@H](O)CN1C(=O)[C@H](CC1CCCCC1)NC(=O)[C@H](Cc1ccc(O)cc1)NC(=O)CCCCCCCCCNC(=O)CN1CCN(CC(=O)O)CCN(CC(=O)O)CCN(CC(=O)O)CC1)C(=O)N1Cc2ccccc2C[C@H]1C(=O)N[C@@H](CO)C(=O)O [DOTA-ADX-CG34] ({DOTA}-[NH(CH2)9CO]Y[Cha][Hyp]G[Cit]F[dA][Tic]S-OH) | 1.35 ± 0.31 | –
4 | 1.05 ± 0.81 nM | 0.79 ± 0.28 nM | C[C@@H](NC(=O)[C@H](Cc1ccccc1)NC(=O)[C@H](CCCNC(N)=O)NC(=O)CNC(=O)[C@@H]1C[C@@H](O)CN1C(=O)[C@H](CC1CCCCC1)NC(=O)[C@H](Cc1ccc(O)cc1)NC(=O)CCCCCNC(=O)CN1CCN(CC(=O)O)CCN(CC(=O)O)CCN(CC(=O)O)CC1)C(=O)N1Cc2ccccc2C[C@H]1C(=O)N[C@@H](CO)C(=O)O [DOTA-AHX-CG34] ({DOTA-Ahx}-Y[Cha][Hyp]G[Cit]F[dA][Tic]S-OH) | -0.96 ± 0.2 | –
5 | 0.13 ± 0.08 nM | 1.53 nM | CSCC[C@H](NC(=O)CNC(=O)[C@@H]1CCCN1C(=O)[C@H](CC1CCCCC1)NC(=O)[C@H](Cc1ccc(O)cc1)NC(=O)CCCCCNC(=O)CN1CCN(CC(=O)O)CCN(CC(=O)O)CCN(CC(=O)O)CC1)C(=O)N[C@@H](Cc1ccc(O)cc1)C(=O)N[C@@H](C)C(=O)N[C@@H](Cc1ccccc1)C(=O)N[C@H](Cc1ccccc1)C(=O)O [DOTA-AHX-CG36] ({DOTA-Ahx}-Y[Cha]PGMYAF[dF]-OH) | 2.27 ± 0.47 | –
6 | 0.44 ± 0.16 nM | 1.34 ± 0.14 nM | CCCCCCCC(=O)NCCCC[C@H](NC(=O)CN1CCN(CC(=O)O)CCN(CC(=O)O)CCN(CC(=O)O)CC1)C(=O)N[C@@H](Cc1ccc(O)cc1)C(=O)N[C@@H](CC1CCCCC1)C(=O)N1C[C@H](O)C[C@H]1C(=O)NCC(=O)N[C@@H](CCCNC(N)=O)C(=O)N[C@@H](Cc1ccccc1)C(=O)N[C@H](C)C(=O)N1Cc2ccccc2C[C@H]1C(=O)N[C@@H](CO)C(=O)O [DOTA-KCap-CG34] ({DOTA}-K(Octanoyl)Y[Cha][Hyp]G[Cit]F[dA][Tic]S-OH) | 1.29 ± 0.68 | –
7 | 0.66 nM and ~0.6 nM | – | C[C@@H](NC(=O)[C@H](Cc1ccccc1)NC(=O)[C@H](CCCNC(N)=O)NC(=O)CNC(=O)[C@@H]1C[C@@H](O)CN1C(=O)[C@H](CC1CCCCC1)NC(=O)[C@H](Cc1ccc(O)cc1)NC(=O)CCC(=O)NCCCOCCOCCOCCCNC(=O)CN1CCN(CC(=O)O)CCN(CC(=O)O)CCN(CC(=O)O)CC1)C(=O)N1Cc2ccccc2C[C@H]1C(=O)N[C@@H](CO)C(=O)O [DOTA-TTDS-CG34] ({X1-Suc}-Y[Cha][Hyp]G[Cit]F[dA][Tic]S-OH) | -1.01 ± 0.39 | –
8 | – | – | C[C@@H](NC(=O)[C@H](Cc1ccccc1)NC(=O)[C@H](CCCNC(N)=O)NC(=O)CNC(=O)[C@@H]1C[C@@H](O)CN1C(=O)[C@H](CC1CCCCC1)NC(=O)[C@H](Cc1ccc(O)cc1)NC(=O)CCCCCNC(=O)CN1CCN(CC(=O)O)CCN(CC(=O)O)CCN(CC(=O)O)CC1)C(=O)N1Cc2ccccc2C[C@H]1C(=O)N[C@@H](CO)C(=O)O [[^177Lu]Lu-DOTA-AHX-CG34, metal not drawn] ({DOTA-Ahx}-Y[Cha][Hyp]G[Cit]F[dA][Tic]S-OH) | – | DU4475 uptake after 24 hours as % of the 1 h-value [4]: approx. 64%; decrease of DU4475 tumor signal from one to 24 hours p.i. [4]: approximately 36%; higher uptake in DU4475 than A549 [4]: 1.4 fold; tissue uptake at 1 h (in vivo; A549 tumor uptake): 2.3 %ID/g; tissue uptake at 24 h (in vivo; A549 tumor uptake): 0.4 %ID/g; tissue uptake at 1 h (in vivo; DU4475 tumor uptake): 3.3 %ID/g; tissue uptake at 24 h (in vivo; DU4475 tumor uptake): 2.1 %ID/g; tissue uptake at 1 h (in vivo; kidneys uptake): 4.7 %ID/g; tissue uptake at 24 h (in vivo; kidneys uptake): 1 %ID/g; tissue uptake at 1 h (in vivo; lung uptake): 5.6 %ID/g; tissue uptake at 1 h (in vivo; spleen uptake): 5.8 %ID/g; tissue uptake at 24 h (in vivo; spleen uptake): 1.7 %ID/g
